Article PMC6757426, “Stability and flexibility of full-length human oligodendrocytic QKI6” (BMC Research Notes, 2019)

Target: the molecule itself
Assay: SEC-MALS; Superdex 200 pg increase 10/300GL, 20 mM Tris-HCl, 300 mM NaCl, 0.5 mM TCEP, pH 8.0; 200 ug QKI6 injected at 0.4 ml/min; no RNA

B1: Quaking isoform 6 (QKI6), full-length human (natural protein, UniProt Q96PU8-9 1-319, looked up)
chain: MVGEMETKEKPKPTPDYLMQLMNDKKLMSSLPNFCGIFNHLERLLDEEISRVRKDMYNDTLNGSTEKRSAELPDAVGPIVQLQEKLYVPVKEYPDFNFVGRILGPRGLTAKQLEAETGCKIMVRGKGSMRDKKKEEQNRGKPNWEHLNEDLHVLITVEDAQNRAEIKLKRAVEEVKKLLVPAAEGEDSLKKMQLMELAILNGTYRDANIKSPALAFSLAATAQAAPRIITGPAPVLPPAALRTPTPAGPTIMPLIRQIQTAVMPNGTPHPTAAIVPPGPEAGLIYTPYEYPYTLAPATSILEYPIEPSGVLGMAFPTKG
notes: Quaking isoform 6 (QKI6), human, UniProt Q96PU8-9, amino acids 1-319; calculated molecular weight of the construct 35,187.8 Da; also called full-length QKI6; human QKI6; source: E. coli BL21(DE3), purified (Ni-NTA, TEV digestion, second Ni-NTA, gel filtration on Superdex 200)
  stoichiometry N: 2
